One test addresses T1, human ARG1 (Homo sapiens, UniProt P05089).
T1 construct: Avi tag (N); His10 (after a GGG linker) (C); made in house; host or cells: E. coli BL21 (DE3)
T1 sequence (P05089 with tags, fused parts or gaps): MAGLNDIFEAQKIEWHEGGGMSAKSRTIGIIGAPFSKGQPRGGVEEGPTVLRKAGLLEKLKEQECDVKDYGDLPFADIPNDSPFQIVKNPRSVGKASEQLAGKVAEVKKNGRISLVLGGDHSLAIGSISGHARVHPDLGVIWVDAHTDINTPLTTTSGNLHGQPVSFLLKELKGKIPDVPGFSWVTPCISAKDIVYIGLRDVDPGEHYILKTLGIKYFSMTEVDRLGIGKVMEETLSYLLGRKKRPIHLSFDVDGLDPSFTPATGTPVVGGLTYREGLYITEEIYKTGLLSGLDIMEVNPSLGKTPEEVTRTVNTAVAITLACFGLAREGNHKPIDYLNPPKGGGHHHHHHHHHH
Briefly: Bio-Layer Interferometry (OctetRED) binding, human ARG1. Conditions: Fab analyte up to 120 nM, screening assay on anti-His surface. As for the experimental part:
(§1) The affinity of binding between the Fab of C0020187 and human ARG2, cynomolgus ARG2 and human ARG1 was estimated using assays in which the biotinylated ARG antigen was captured on a streptavidin sensor tip. A fresh sensor tip was used for each measurement and no regeneration was used. A series of dilutions of the C0020187 Fab (3.25-240 nM) were individually placed in contact with the ligand surface for a sufficient amount of time to observe sensorgrams that could be fitted to an appropriate binding model with confidence (typically 5 minutes), followed by an appropriate length of dissociation time (typically 10 minutes). Blank reference (0 nM Fab) data were subtracted from each dataset to reduce the impact of any buffer artefacts or non-specific binding effects. An appropriate binding model was then fitted simultaneously to the data from each analyte titration using the Octet Evaluation software.
The binding of affinity-matured antibodies to human ARG1 was also tested on the OctetRED system using a screening assay which stably captures […] as the ligand on an anti-His surface. The Fabs were typically tested in an analyte range of 1.8 to 120 nM, with an association time of 5 minutes and a dissociation time of 10 minutes. Sensors were regenerated using 10 mM glycine pH 1.5 after each cycle.
Binding of the second-generation antibodies to human ARG was also tested on the OctetRED system using a screening assay which stably captures […] as the ligand on an anti-His surface. The Fabs were tested as analyte up to 120 nM, with an association time of 5 minutes and a dissociation time of 10 minutes. Sensors were regenerated using 10 mM glycine pH 1.5 after each cycle.
A general note: In BLI a coated tip is dipped into the sample, and binding shifts an interference pattern.

In a further test the target is T2, human ARG2 (Homo sapiens, UniProt P78540, E275H/R327K).
T2 construct: His10 (after a GGG linker) (C); made in house; host or cells: E. coli BL21 (DE3)
T2 sequence (P78540 23-354 E275H/R327K): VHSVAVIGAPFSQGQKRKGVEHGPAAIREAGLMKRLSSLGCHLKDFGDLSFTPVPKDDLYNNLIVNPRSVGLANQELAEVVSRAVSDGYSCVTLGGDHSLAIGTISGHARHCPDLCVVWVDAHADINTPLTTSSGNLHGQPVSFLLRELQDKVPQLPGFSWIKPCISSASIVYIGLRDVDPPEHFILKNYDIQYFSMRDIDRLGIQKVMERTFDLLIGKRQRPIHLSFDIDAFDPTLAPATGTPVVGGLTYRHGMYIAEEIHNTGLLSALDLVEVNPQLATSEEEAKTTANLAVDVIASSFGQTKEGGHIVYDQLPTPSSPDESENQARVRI
As to the kind of experiment: Bio-Layer Interferometry (OctetRED) binding kinetics, human ARG2.
Text: The OctetRED (Pall ForteBio) instrument was used to assess the kinetic parameters of the interactions between C0020187 and recombinantly produced human ARG2, cynomolgus ARG2 and human ARG1. The Octet biosensor uses an optical analytical technique that analyses the interference pattern of white light reflected from two surfaces: a layer of immobilised protein on the sensor tip, and an internal reference layer. Any changes in binding at the biosensor tip result in a shift in interference pattern, which can be measured in real time. Molecules associating with or dissociating from ligands at the biosensor tip shift the interference pattern and generate a response on the Octet system which is recorded by the acquisition software.
Typically, a defined concentration of the analyte species is brought into contact with the coupled ligand and any binding is detected as an increased in signal (association phase). This is followed by a period of buffer rinse, during which dissociation of the analyte species from the surface immobilised ligand can be observed as a decrease in signal (dissociation phase). Repetition of this with a range of analyte concentrations provides data for the analysis of binding kinetics.
An Octet Kinetics Buffer (PBS containing 0.01% BSA and 0.002% Tween20) is typically used as the diluent buffer for the analyte samples and as the flow buffer during the dissociation phase. The experimental data is recorded over time as shift in interference pattern (nm) over time, which is directly proportional to the optical thickness at the biosensor tip, which in turn is an approximate measure of the mass of analyte bound. The proprietary Octet Data Analysis software package can then be used to process data and fit binding models to the data sets. Returned association (ka, M^−1 s^−1) and dissociation (kd, s^−1) rate constants allow calculation of dissociation (KD, M) affinity constants.
as §1
Example results for C0020187 are shown in Table 9, showing the association rate constants (ka), dissociation rate constants (kd) and dissociation constants (KD). These parameters were derived from a 1:1 binding fit to the data.
The affinities of the affinity-matured antibodies to human ARG2 were measured on the OctetRED system as described in section 1.15 using the streptavidin capture method. Typically, an analyte titration range of 1.8 to 120 nM was used.
The affinities of the second-generation antibodies to human ARG2 were measured on the OctetRED system. A screening assay which stably captures His-tagged ARG2 as the ligand on an anti-His surface was utilised to screen the second-generation candidates as Fabs at an analyte range of 1.8 to 120 nM, with an association time of 5 minutes and a dissociation time of 10 minutes. Sensors were regenerated using 10 mM glycine pH 1.5 after each cycle. Based on this assay, six candidates with estimated affinities in the sub-nanomolar range were identified, and they were further profiled using an extended assay which is more suitable for antibodies of high affinities. […]

Where [1] appears, read: Fab as analyte, streptavidin capture, analyte 1.8 to 120 nM, affinity-matured antibodies.
[2] abbreviates: second-generation Fab, extended assay: association 10 min, dissociation 40 min, 0.47 to 30 nM, streptavidin surface with bio-ARG2.

B1: C0021061: anti-ARG2 antibody, first generation lead, VH SEQ ID NO: 62, VL SEQ ID NO: 67 (antibody, listed as Homo sapiens, V domains shown)
VH: EVQLLESGGGLVQPGGSLRLSCAASGFTFSSYAMSWVRQAPGKGLEWVSAKPTDAGSTYYADSVKGRFTISRDNSKNTLYLQMNSLRAEDTAVYYCARLRADLGLYMDLWGRGTLVTVSS
VL: QSVLTQPPSVSAAPGQKVTISCSGSSSNIGNHYVSWYQQLPGTAPKLLIYNTVYPKSGIPDRFSGSKSGTSATLGITGLQTGDEADYYCGTWDSSLSALVFGGGTKLTVL
modifications: C0021061
Turning to B1, in the test with human ARG1, the “Results, binding to human ARG1 (BLI)” value was “No binding observed”. In the test with human ARG2 (setting [1]), this molecule gave a ka of 271000 M⁻¹ s⁻¹ and a kd of 0.000351 s⁻¹.

B2: C0021092: anti-ARG2 antibody, VH SEQ ID NO: 92, VL SEQ ID NO: 97 (antibody, listed as Homo sapiens, V domains shown)
VH: EVQLLESGGGLVQPGGSLRLSCAASGFTFSRYAMSWVRQAPGKGLEWVSAHTHSPGSTYYADSVKGRFTISRDNSKNTLYLQMNSLRAEDTAVYYCARLRADLGLYMDLWGRGTLVTVSS
VL: QSVLTQPPSVSAAPGQKVTISCSGSSSNIGNHYVSWYQQLPGTAPKLLIYNSVARPSGIPDRFSGSKSGTSATLGITGLQTGDEADYYCGTWDSSLSALVFGGGTKLTVL
modifications: C0021092
For B2, the “Results, binding to human ARG1 (BLI)” value with human ARG1 is on record as “No binding observed”. Further, in the test with human ARG2 (setting [1]), the ka turned out to be 280000 M⁻¹ s⁻¹ and the kd worked out at 0.000755 s⁻¹.

B3: C0021065: anti-ARG2 antibody, VH SEQ ID NO: 72, VL SEQ ID NO: 77 (antibody, listed as Homo sapiens, V domains shown)
VH: EVQLLESGGGLVQPGGSLRLSCAASGFTFSSYAMSWVRQAPGKGPEWVSAISGFSPYYADSVKGRFTISRDNSRNTLYLQMNSLRAEDTAVYYCARLRADLGLYMDLWGRGTLVTVSS
VL: QSVLTQPPSVSAAPGQKVTISCSGSSSNIGNHYVSWYQQLPGTAPKLLIYDTDHMASGIPDRFSGSKSGTSATLGITGLQTGDEADYYCGTWDSSLSALVFGGGTKLTVL
modifications: C0021065
For the molecule B3, the “Results, binding to human ARG1 (BLI)” value with human ARG1 was “No binding observed”. Further, in the test with human ARG2 (setting [1]), the ka amounted to 409000 M⁻¹ s⁻¹ and the kd was 0.000665 s⁻¹.

B4: C0021158 IgG: anti-ARG2 antibody, VH SEQ ID NO: 282, VL SEQ ID NO: 287; IgG and Fab versions carry these sequences (antibody, listed as Homo sapiens, V domains shown)
VH: EVQLLESGGGLVQPGGSLRLSCAASGFTFRYEVAAWVRQAPGKGLEWVSAISGPIPKGYYADSVKGRFTISRDNSKNTLYLQMNSLRAEDTAVYYCARLRADLGLYMDLWGRGTLVTVSS
VL: QSVLTQPPSVSAAPGQKVTISCSGSSSNIGNHYVSWYQQLPGTAPKLLIYDNSERTAGVPDRFSGSKSGTSATLGITGLQTGDEADYYCGTWDELTSNLVFGGGTKLTVL
modifications: C0021158 IgG
Regarding B4, the “Results, binding to human ARG1 (BLI)” value with human ARG1 is “No binding observed”. In the test with human ARG2 (setting [2]), this molecule returned a ka of 262000 M⁻¹ s⁻¹ and a kd of 4.54e-05 s⁻¹.

B5: C0021133: anti-ARG2 antibody, VH SEQ ID NO: 192, VL SEQ ID NO: 197 (antibody, listed as Homo sapiens, V domains shown)
VH: EVQLLESGGGLVQPGGSLRLSCAASGFTFRYDHHVWVRQAPGKGLEWVSAISGSGGSTYYADSVKGRFTISRDNSKNTLYLQMNSLRAEDTAVYYCARLRADLGLYMDLWGRGTLVTVSS
VL: QSVLTQPPSVSAAPGQKVTVSCSGSSSNIGNHYVSWYQQLPGTAPKLLIYDTTVLSSGIPDRFSGSKSGTSATLGITGLQTGDEADYYCGTWDELTSNLVFGGGTKLTVL
modifications: C0021133
In the case of B5, the “Results, binding to human ARG1 (BLI)” value in the test with human ARG1 is “No binding observed”. Further, in the test with human ARG2 (setting [1]), the ka was 219000 M⁻¹ s⁻¹ and the kd came out at 0.000449 s⁻¹.

B6: C0021022: anti-ARG2 antibody, VH SEQ ID NO: 42, VL SEQ ID NO: 47 (antibody, listed as Homo sapiens, V domains shown)
VH: EVQLLESGGGLVQPGGSLRLSCAASGFTFSSYAMSWVRQAPGKGPEWVSAISGFSPYYADSVKGRFTISRDNSKNTLYLQMNSLRAEDTAVYYCARLRADLGLYMDLWGRGTLVTVSS
VL: QSVLTQPPSVSAAPGQKVTISCSGSSSNIGNHYVSWYQQLPGTAPKLLIYDNSERPSGIPDRFSGSKSGTSATLGITGLQTGDEADYYCGTWDSSLSALVFGGGTKLTVL
modifications: C0021022
With B6, the “Results, binding to human ARG1 (BLI)” value with human ARG1 is given as “No binding observed”. In the test with human ARG2 (setting [1]), this molecule had a ka of 412000 M⁻¹ s⁻¹ and a kd of 0.00112 s⁻¹.

B7: C0021139: anti-ARG2 antibody, VH SEQ ID NO: 212, VL SEQ ID NO: 217 (antibody, listed as Homo sapiens, V domains shown)
VH: EVQLLESGGGLVQPGGSLRLSCAASGFTFQYDYQVWVRQAPGKGLEWVSAISGSGGSTYYADSVKGRFTISRDNSKNTLYLQMNSLRAEDTAVYYCARLRADLGLYMDLWGRGTLVTVSS
VL: QSVLTQPPSVSAAPGQKVTISCSGSSSNIGNHYVSWYQQLPGTAPKLLIYDNSERTSGIPDRFSGSKSGTSATLGITGLQTGDEADYYCGTWDELTSNLVFGGGTKLTVL
modifications: C0021139
Take B7: in the test with human ARG1, the “Results, binding to human ARG1 (BLI)” value is recorded as “No binding observed”. Also, in the test with human ARG2 (setting [1]), the ka worked out at 198000 M⁻¹ s⁻¹ and the kd amounted to 0.000871 s⁻¹.

B8: C0021177: anti-ARG2 antibody, VH SEQ ID NO: 322, VL SEQ ID NO: 327 (antibody, listed as Homo sapiens, V domains shown)
VH: EVQLLESGGGLVQPGGSLRLSCAASGFTFRYEVAAWVRQAPGKGLEWVSAISGPAPKGYYADSVKGRFTISRDNSKNTLYLQMNSLRAEDTAVYYCARLRADLGLYMDLWGRGTLVTVSS
VL: QSELTQPPTASAAPGQKVTISCSGSSSNIGNHYVSWYQQLPGTAPKLLIYDTTVLSSGIPDRFSGSKSGTSATLGITGLQTGDEADYYCGTWDELTSNLVFGGGTKLTVL
modifications: C0021177
In the case of B8, in the test with human ARG1, the “Results, binding to human ARG1 (BLI)” value is “No binding observed”. For the same molecule, in the test with human ARG2 (setting [2]), the ka was found to be 202000 M⁻¹ s⁻¹ and the kd was determined as 3.51e-05 s⁻¹.

The record behind these values is patent US20220403048A1, “BINDING MOLECULES TO ARGINASE II [ARG2]” (Cancer Research Technology Limited, priority 2019, published 2022).
